The IC50 is the midpoint of a concentration-inhibition curve. A higher IC50 goes with weaker potency in that assay. The term IC90 denotes the concentration needed for an effect of 90%. The term Kd denotes a measure of binding affinity in units of concentration.

The text below walks through data of US20090226437A1 (Genentech, published 2009).

Assay [1] addresses T1, Full length human integrin alpha4beta7 (expressed in 293 cells, purified by Fib504 affinity chromatography) (human, UniProt P13612 34-1032; P26010 20-798).
T1 construct: mature; also called immobilized alpha4beta7
In words: phage-displayed Fab on immobilized alpha4beta7.

Assay [2] addresses T2, human alpha4beta7 receptor on RPMI8866 cells (human, UniProt P13612 34-1032; P26010 20-798).
T2 construct: whole, on cells; also called alpha4beta7 on RPMI8866
In words: cell adhesion inhibition, RPMI8866 cells on coated 7dVCAM-1, Exp 1. As to the method:
(§1) RPMI8866/MAdCAM-1-Ig Cell Adhesion: RPMI8866 cells express alpha4beta7 on their surface (Roswell Park Memorial Institute, Buffalo, N.Y.). Humanized Fib504 variants (hu504 variants) were contacted with a mixture of RMPI8866 cells and MAdCAM fused to IgG coated on a solid support. […] After blocking the plates with 200 ul/well of 5 mg/ml BSA for one hour at room temperature, 50 μl of humanized Fib504 variants in assay media (RPMI 1640 media, Hyclone®, Logan Utah, USA, supplemented with 5 mg/mL BSA) were added to each well and 150,000 BCECF-labeled cells (BCECF, Molecular Probes, Eugene, Oreg.) in 50 μl of assay media were added to each well and incubated for 15 minutes at 37° C. The wells were washed two times with 150 μl of assay media to remove unbound cells. The bound cells were solubilized with 100 μl of 0.1% SDS in 50 mM Tris/HCl pH7.5. The amount of fluorescence released from lysed cells was measured by SPECTRAmax GEMINI™ (Molecular Devices, Sunnyvale, Calif.) at 485 nm excitation 530 nm emission wavelengths. The fluorescence values were analyzed as a function of the concentrations of the humanized Fib504 variants added in each assay, using a four-parameter nonlinear least squares fit, to obtain the IC₅₀ values of each humanized Fib504 variant in the assay. IC₅₀ and IC₉₀ values were estimated from the four-parameter fit. FIG. 14 is an exemplary plot of the results. The IC₉₀ and IC₅₀ values for each of the variants tested are shown below in Table 4.
(§2) RPMI8866/7dVCAM-1 Cell Adhesion: The RPMI8866/7dVCAM-1 assay is similar format to the RPMI8866/MAdCAM-1-Ig except that 7dVCAM-1 (ADP5, R&D Systems, Minneapolis, Minn.) was used at 2 ug/ml to coat plates. The results were analyzed as described above for the MAdCAM binding experiments. The IC₅₀ values for each of the variants tested are shown below in Table 5.

The target in assay [3] is T2, human alpha4beta7 receptor on RPMI8866 …. Briefly: cell adhesion inhibition, RPMI8866 cells on coated 7dVCAM-1, Exp 2. The method, then:
as §1, §2

Assay [4] shares this target. Briefly: cell adhesion inhibition, RPMI8866 cells on coated MAdCAM-1-Ig, Exp 1. The method, then:
as §1

The target is the same in assay [5]. Briefly: cell adhesion inhibition, RPMI8866 cells on coated MAdCAM-1-Ig, Exp 2. As to the method:
as §1

In assay [6] the target is T3, alpha4beta7 on 38C13 alpha4+ murine lymphoma cells transfected with integrin beta7 (38C13beta7 cells) (murine, UniProt Q00651 41-1039; P26011 20-806).
T3 construct: whole, on cells; also called 38C13-beta7 expressing cells; murine beta7-containing receptor
In words: cell adhesion inhibition, 38C13beta7 cells on coated muVCAM-1-Ig, experiment 1 of 2. As to the method: as §1
(§3) 38C13beta7/muVCAM-1-Ig Cell Adhesion Assay: The 38C13beta7/muVCAM-1-Ig assay was performed according to the murine MAdCAM-1-Ig/RPMI8866 cell binding assay above, except that muVCAM-1-Ig (Genentech, Inc.) was used at 2 μg/ml to coat plates. (IC₅₀ and IC₉₀ values for 2 experiments are shown).

In assay [7] the target is T3, alpha4beta7 on 38C13 alpha4+ murine …. In words: cell adhesion inhibition, 38C13beta7 cells on coated muVCAM-1-Ig, experiment 2 of 2. The method, then: as §1, §3
For assay [8] the target is unchanged. Briefly: cell adhesion inhibition, 38C13beta7 cells on coated muMAdCAM-1-Ig, experiment 1 of 2. The method, then:
as §1
(§4) 38C13beta7/muMAdCAM-1-Ig Cell Adhesion Assay: The 38C13beta7/muMAdCAM-1-Ig assay was similar format to the RPMI8866/MAdCAM-1-Ig except that muMAdCAM-1-Ig (Genentech, Inc.) was used at 2 μg/ml to coat plates. 38C13 alpha4+ murine lymphoma cells (Crowe, D. T. et al., J. Biol. Chem. 269:14411-14418 (1994)) were transfected with DNA encoding integrin beta7 such that alpha4beta7 was expressed on the cell surface. The ability of the antibodies variants to disrupt interaction between the cell membrane associated alpha4beta7 and MAdCAM was performed as above.

Assay [9] shares this target. In words: cell adhesion inhibition, 38C13beta7 cells on coated muMAdCAM-1-Ig, experiment 2 of 2. The method, then:
as §1, §4

Assay [10] concerns the target T4, alphaEbeta7 on alphaEbeta7-transfected 293 cells (human, UniProt P38570 19-1179; P26010 20-798).
T4 construct: whole, on cells; also called alphaEbeta7 293 cells
In words: cell adhesion inhibition, alphaEbeta7 293 cells on coated huE-Cadherin, experiment 1 of 3. As to the method: (§5) After blocking the plates with 200 ul/well of 5 mg/ml BSA for one hour at room temperature, 50 μl of humanized Fib504 variants in assay media (RPMI 1640 media, Hyclone®, Logan Utah, USA, supplemented with 5 mg/mL BSA) were added to each well and 150,000 BCECF-labeled cells (BCECF, Molecular Probes, Eugene, Oreg.) in 50 μl of assay media were added to each well and incubated for 15 minutes at 37° C. The wells were washed two times with 150 μl of assay media to remove unbound cells. The bound cells were solubilized with 100 μl of 0.1% SDS in 50 mM Tris/HCl pH7.5. The amount of fluorescence released from lysed cells was measured by SPECTRAmax GEMINI™ (Molecular Devices, Sunnyvale, Calif.) at 485 nm excitation 530 nm emission wavelengths. The fluorescence values were analyzed as a function of the concentrations of the humanized Fib504 variants added in each assay, using a four-parameter nonlinear least squares fit, to obtain the IC₅₀ values of each humanized Fib504 variant in the assay. IC₅₀ and IC₉₀ values were estimated from the four-parameter fit. FIG. 14 is an exemplary plot of the results. The IC₉₀ and IC₅₀ values for each of the variants tested are shown below in Table 4.
(§6) The assay format is similar to the RPMI8866/MAdCAM-1-Ig assay except that the huE-Cadherin (648-EC, R&D Systems, Minneapolis, Minn.) was used at 2 μg/ml to coat the plates. Plates were then blocked with 5 mg/ml BSA as mentioned above and 50 μl of FIB504 variants in assay media (F-12:DMEM (50:50) supplemented with 5 mg/ml BSA) were add to each well and 110,000 BCECF labeled cells in 50 ul of assay media were added to each well and incubated for 15 minutes at 37° C. The wells were washed two times with 150 μl of assay media and the amount of fluorescence released by lysed cells was measured and analyzed as described above.

The target of assay [11] is T4, alphaEbeta7 on alphaEbeta7-transfected …. In words: cell adhesion inhibition, alphaEbeta7 293 cells on coated huE-Cadherin, experiment 2 of 3. The method, then:
as §5, §6

Assay [12] shares this target. Briefly: cell adhesion inhibition, alphaEbeta7 293 cells on coated huE-Cadherin, experiment 3 of 3. The method, then: as §5, §6
Assay [13] addresses T1, Full length human integrin alpha4beta7 …. In words: SPR (BIAcore-3000), Fab immobilized, alpha4beta7 injected. The method, then: (§7) Affinity determinations were performed by surface plasmon resonance using a BIAcore™-3000 (Biacore, Piscataway, N.J.). Humanized Fib504 Fab variants were immobilized in 10 mM acetate pH 4.5 (ranging from 250 to 1500 response units (RU)) on a CM5 sensor chip and 2-fold dilutions of human integrin alpha4beta7 (1.5 to 770 nM) in TBSM containing 2% n-octylglucoside were injected. Each sample was analyzed with 5-minute association and 5 to 60-minute dissociation times. After each injection, the chip was regenerated using three 1-minute injections of 8 M urea. Binding response was corrected by subtracting the RU from a blank flow cell. A 1:1 Languir model of simultaneous fitting of kₒₙ and koff was used for kinetics analysis.
Libraries were generated as before using a soft randomization strategy simultaneously at each of the 6 HVRs for the Fib504K-RL and Fib504K-RF grafts and sorted on immobilized alpha4beta7 for 4 rounds of selection as described above. Enrichment was only observed for the library based on the Fib504K-RF graft. […] Most clones contained the change Y32L; in addition position 31 was frequently changed to D, S, P or N (FIG. 1C). In addition to the starting graft, Fib504K-RF, 3 clones were expressed and purified as Fab protein and further analyzed by Biacore as described above. […] The results of the Biacore analysis are shown in Table 3, below, and indicate that selected variation in the HVRs and/or framework regions, disclosed herein, generated antagonist antibodies to alpha4beta7 having improved affinity relative to the starting antibody.

The target is the same in assay [14]. Briefly: BIAcore (column head 'BIAcore Affinity Assay (nM)'); per paragraph 379 the Fab was immobilised on a CM5 chip and human integrin alpha4beta7 injected. As to the method:
as §7
Libraries were generated as before using a soft randomization strategy simultaneously at each of the 6 HVRs for the Fib504K-RL and Fib504K-RF grafts and sorted on immobilized alpha4beta7 for 4 rounds of selection as described above. Enrichment was only observed for the library based on the Fib504K-RF graft. […] Most clones contained the change Y32L; in addition position 31 was frequently changed to D, S, P or N (FIG. 1C). In addition to the starting graft, Fib504K-RF, 3 clones were expressed and purified as Fab protein and further analyzed by Biacore as described above. […]
(In general: In SPR one partner is held on a chip, and binding of the other changes the refractive index at the surface.)

Substitutions are numbered along the chain they refer to.

T1 sequence (P13612 34-1032, chain 1 of 2): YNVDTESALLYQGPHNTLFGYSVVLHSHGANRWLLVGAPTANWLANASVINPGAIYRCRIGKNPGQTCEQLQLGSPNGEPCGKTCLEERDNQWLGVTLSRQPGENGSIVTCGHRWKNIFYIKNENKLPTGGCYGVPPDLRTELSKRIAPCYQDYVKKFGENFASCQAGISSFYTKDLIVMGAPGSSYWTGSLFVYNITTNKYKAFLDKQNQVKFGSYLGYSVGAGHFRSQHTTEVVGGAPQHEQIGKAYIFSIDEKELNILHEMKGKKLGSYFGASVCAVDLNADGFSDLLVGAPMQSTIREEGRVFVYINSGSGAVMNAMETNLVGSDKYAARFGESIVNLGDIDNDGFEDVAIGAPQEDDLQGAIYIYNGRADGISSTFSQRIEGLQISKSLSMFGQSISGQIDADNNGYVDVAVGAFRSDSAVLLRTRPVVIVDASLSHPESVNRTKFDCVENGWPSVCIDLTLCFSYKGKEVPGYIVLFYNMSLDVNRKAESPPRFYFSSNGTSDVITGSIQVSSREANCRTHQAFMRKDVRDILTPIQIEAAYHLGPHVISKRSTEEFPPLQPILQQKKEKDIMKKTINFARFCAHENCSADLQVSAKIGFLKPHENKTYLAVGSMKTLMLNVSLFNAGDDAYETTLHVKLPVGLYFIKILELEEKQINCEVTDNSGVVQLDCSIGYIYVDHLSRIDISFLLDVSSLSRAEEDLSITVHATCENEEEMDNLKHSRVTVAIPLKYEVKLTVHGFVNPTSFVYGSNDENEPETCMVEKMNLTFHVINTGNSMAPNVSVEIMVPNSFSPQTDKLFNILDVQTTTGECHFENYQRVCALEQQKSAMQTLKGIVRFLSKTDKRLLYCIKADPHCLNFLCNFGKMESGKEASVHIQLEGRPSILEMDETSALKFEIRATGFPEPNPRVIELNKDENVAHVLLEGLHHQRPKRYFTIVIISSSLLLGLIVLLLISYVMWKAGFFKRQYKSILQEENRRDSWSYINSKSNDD
T1 sequence (P26010 20-798, chain 2 of 2): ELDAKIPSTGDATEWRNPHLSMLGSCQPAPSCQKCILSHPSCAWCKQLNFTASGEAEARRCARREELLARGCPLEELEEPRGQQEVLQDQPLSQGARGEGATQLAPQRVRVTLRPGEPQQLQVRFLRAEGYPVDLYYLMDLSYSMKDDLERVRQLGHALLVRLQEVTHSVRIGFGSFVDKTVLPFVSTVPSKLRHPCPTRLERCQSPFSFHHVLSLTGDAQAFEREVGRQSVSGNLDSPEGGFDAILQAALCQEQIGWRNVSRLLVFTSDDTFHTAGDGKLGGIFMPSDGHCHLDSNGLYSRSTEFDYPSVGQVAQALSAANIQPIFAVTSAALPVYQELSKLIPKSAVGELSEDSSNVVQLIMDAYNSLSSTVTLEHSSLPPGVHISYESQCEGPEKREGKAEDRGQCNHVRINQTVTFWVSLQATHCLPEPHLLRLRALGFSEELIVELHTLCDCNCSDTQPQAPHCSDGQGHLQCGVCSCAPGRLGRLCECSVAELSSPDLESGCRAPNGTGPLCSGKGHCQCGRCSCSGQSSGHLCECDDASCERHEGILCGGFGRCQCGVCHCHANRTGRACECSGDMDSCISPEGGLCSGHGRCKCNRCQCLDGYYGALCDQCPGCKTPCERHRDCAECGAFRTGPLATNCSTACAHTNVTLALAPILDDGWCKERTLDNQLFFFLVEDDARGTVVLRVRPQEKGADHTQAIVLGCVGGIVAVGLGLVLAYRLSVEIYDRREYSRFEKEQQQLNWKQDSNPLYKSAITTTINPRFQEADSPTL
T2 sequence (P13612 34-1032, chain 1 of 2): as the sequence (P13612 34-1032, chain 1 of 2) above
T2 sequence (P26010 20-798, chain 2 of 2): as the sequence (P26010 20-798, chain 2 of 2) above
T3 sequence (Q00651 41-1039, chain 1 of 2): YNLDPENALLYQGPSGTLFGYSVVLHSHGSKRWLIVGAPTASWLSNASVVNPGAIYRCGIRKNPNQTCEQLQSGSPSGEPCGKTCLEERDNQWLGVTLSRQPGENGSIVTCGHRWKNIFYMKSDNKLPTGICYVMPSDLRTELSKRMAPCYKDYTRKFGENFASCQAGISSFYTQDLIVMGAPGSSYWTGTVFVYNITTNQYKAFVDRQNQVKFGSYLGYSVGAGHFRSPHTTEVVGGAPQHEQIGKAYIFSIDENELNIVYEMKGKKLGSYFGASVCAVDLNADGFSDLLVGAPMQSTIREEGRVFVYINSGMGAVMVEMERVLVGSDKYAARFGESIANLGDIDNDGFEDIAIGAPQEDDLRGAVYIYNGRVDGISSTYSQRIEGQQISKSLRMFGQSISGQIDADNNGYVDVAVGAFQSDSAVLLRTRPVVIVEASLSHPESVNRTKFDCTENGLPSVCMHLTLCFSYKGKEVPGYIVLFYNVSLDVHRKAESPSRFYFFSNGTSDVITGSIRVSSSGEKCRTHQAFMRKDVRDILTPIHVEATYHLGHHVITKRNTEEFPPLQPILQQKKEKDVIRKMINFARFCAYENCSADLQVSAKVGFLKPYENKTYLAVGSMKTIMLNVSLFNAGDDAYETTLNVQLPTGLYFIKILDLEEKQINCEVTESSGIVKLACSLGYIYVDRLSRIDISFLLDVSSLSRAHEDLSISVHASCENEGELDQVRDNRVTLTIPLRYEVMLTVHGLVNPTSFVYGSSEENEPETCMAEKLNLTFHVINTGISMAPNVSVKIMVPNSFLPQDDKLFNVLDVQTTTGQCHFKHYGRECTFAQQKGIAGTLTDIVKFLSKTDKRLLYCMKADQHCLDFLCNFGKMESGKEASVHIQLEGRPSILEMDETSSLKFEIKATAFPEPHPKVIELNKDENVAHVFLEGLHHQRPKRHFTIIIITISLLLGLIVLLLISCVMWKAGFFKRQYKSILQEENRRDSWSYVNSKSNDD
T3 sequence (P26011 20-806, chain 2 of 2): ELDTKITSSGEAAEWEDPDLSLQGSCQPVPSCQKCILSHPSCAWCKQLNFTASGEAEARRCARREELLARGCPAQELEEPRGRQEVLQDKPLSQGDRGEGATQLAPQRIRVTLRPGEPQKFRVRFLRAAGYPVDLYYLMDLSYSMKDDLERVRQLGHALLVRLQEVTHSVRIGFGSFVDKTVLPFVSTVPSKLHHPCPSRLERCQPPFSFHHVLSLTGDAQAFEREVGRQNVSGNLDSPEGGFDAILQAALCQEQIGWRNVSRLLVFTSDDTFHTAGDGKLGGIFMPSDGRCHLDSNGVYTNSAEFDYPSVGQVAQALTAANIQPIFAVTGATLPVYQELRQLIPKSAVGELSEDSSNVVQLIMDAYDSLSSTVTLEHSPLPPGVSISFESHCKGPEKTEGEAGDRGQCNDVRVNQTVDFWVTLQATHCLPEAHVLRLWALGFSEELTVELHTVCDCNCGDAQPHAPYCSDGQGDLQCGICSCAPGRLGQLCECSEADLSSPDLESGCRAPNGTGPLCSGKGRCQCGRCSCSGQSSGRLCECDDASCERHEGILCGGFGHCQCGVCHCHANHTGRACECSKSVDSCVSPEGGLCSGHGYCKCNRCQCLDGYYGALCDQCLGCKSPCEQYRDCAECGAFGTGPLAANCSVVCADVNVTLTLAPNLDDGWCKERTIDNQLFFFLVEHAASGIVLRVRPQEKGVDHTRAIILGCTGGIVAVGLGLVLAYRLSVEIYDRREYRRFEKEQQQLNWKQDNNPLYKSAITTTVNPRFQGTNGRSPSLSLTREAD
T4 sequence (P38570 19-1179, chain 1 of 2): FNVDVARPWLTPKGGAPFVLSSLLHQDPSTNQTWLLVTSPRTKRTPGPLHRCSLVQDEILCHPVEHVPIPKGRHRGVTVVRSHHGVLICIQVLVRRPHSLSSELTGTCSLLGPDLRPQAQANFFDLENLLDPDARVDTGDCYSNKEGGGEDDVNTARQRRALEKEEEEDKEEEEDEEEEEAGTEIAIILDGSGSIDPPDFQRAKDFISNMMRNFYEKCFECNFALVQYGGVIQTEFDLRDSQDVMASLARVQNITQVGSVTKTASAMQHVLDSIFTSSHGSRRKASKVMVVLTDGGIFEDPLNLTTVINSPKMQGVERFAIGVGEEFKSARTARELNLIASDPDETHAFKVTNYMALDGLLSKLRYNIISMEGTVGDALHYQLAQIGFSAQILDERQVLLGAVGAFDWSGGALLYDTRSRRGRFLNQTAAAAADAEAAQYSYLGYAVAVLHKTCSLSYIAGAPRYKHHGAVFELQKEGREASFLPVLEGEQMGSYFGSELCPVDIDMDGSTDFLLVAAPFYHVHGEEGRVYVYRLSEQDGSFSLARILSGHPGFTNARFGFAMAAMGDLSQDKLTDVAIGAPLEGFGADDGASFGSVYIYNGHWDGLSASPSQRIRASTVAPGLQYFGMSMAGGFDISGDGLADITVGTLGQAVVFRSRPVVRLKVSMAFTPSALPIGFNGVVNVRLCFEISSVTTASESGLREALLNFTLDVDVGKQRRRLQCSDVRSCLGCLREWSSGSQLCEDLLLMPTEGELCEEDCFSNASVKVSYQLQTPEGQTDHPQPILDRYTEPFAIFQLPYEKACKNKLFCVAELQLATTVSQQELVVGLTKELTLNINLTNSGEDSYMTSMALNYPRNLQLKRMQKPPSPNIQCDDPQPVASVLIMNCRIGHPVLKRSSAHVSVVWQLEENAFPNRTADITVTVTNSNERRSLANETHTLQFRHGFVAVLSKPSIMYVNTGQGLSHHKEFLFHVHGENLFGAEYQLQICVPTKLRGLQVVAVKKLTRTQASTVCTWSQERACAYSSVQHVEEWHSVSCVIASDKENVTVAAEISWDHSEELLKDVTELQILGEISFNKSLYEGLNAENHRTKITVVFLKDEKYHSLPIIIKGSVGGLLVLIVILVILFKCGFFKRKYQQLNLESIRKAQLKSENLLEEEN
T4 sequence (P26010 20-798, chain 2 of 2): as the sequence (P26010 20-798, chain 2 of 2) above

B1: Fib504 Kgraft (HVR graft that also includes VL position 49K), Fab displayed on phage (Fab, V domains shown)
VH: EVQLVESGGGLVQPGGSLRLSCAASGFFITNNYWGWVRQAPGKGLEWVGYISYSGSTSYNPSLKSRFTISADTSKNTAYLQMNSLRAEDTAVYYCAMTGSSGYFDFWGQGTLVTVSS
VL: DIQMTQSPSSLSASVGDRVTITCRASESVDTYLHWYQQKPGKAPKLLIKYASQSISGVPSRFSGSGSGTDFTLTISSLQPEDFATYYCQQGNSLPNTFGQGTKVEIKR
notes: Tested as Fab on phage; also called hu504 Kgraft; hu504K graft
For B1, the binding result in assay [1] is on record as “no binding”.

B2: Fib504 graft (direct HVR graft of rat Fib504 into the human acceptor framework), Fab displayed on phage (Fab, V domains shown)
VH: B1 VH
VL: B1 VL with K49Y
notes: Tested as monovalent Fab-g3 on phage (VH-CH1 fused to truncated P3); also called hu504 graft; humanized504 graft
Turning to B2, in [1], the binding result is listed as “no binding”.

B3: Variant hu504.16, IgG (antibody, name in Kabat numbering, V domains shown)
VH: B1 VH with A71R, A78F
VL: B1 VL with Y32L
Take B3: the concentration for half-maximal inhibition (IC50) in assay [2] worked out at 0.098 nM; in assay [3] it was 0.223 nM; in assay [4], 0.0768 nM; in assay [5], 0.206 nM; in [6] it was 0.835 nM; in assay [7], 0.584 nM. Also, the IC50 stood at 0.998 nM in assay [8]; 0.61 nM in [9]; 1.96 nM in assay [10]; 10.1 nM in assay [11]; 4.58 nM in assay [12]. For the same molecule, the IC90 in [2] was found to be 0.261 nM; in [3], 0.774 nM; in assay [4], 0.244 nM; in [5], 0.551 nM; in [6], 2.86 nM; in assay [7], 1.84 nM. Also, the IC90 stood at 3.72 nM in [8]; 4.08 nM in [9]; 7.03 nM in assay [10]; 33.7 nM in [11]; 13.5 nM in assay [12].

B4: Variant hu504.16, Fab (Fab, name in Kabat numbering, V domains shown)
VH: B1 VH with A71R, A78F
VL: B1 VL with Y32L
notes: Clone from the Fib504K-RF library with an HVR-L1 change; Tested as Fab; also called Variant 504.16
B4: the Kd is 23 nM in assay [13] and 23.4 nM in assay [14].

B5: Variant hu504.5, Fab (Fab, name in Kabat numbering, V domains shown)
VH: B1 VH with A71R, A78F
VL: B1 VL with T31S, Y32L
notes: Tested as Fab; also called Variant 504.5
With B5, the affinity in [13], expressed as Kd, was 9 nM.

B6: chimeric Fib504 Fab (Fab, V domains shown)
VH: EVQLQESGPGLVKPSQSLSLTCSVTGFFITNNYWGWIRKFPGNKMEWMGYISYSGSTSYNPSLKSRISITRDTSKNQFFLQLNSVTTEDTATYYCAMTGSSGYFDFWGPGTMVTVSS
VL: DVVMTQSPATLSVTPGERISLSCRASESVDTYLHWYQQKPNESPRLLIKYASQSISGIPSRFSGSGSGTDFTLSINGVELEDLSIYYCQQGNSLPNTFGAGTKLELKR
notes: Rat Fib504 variable domains in a chimeric Fab; the constant domains are not specified
The molecule B6 gave a Kd in assay [13] of 11 nM.
